# Molecular target: CD18 (Integrin beta-2) (human) (UniProt P05107)
# Test: cell-based or functional assay
# Chain of UniProt P05107 (P05107 23-769): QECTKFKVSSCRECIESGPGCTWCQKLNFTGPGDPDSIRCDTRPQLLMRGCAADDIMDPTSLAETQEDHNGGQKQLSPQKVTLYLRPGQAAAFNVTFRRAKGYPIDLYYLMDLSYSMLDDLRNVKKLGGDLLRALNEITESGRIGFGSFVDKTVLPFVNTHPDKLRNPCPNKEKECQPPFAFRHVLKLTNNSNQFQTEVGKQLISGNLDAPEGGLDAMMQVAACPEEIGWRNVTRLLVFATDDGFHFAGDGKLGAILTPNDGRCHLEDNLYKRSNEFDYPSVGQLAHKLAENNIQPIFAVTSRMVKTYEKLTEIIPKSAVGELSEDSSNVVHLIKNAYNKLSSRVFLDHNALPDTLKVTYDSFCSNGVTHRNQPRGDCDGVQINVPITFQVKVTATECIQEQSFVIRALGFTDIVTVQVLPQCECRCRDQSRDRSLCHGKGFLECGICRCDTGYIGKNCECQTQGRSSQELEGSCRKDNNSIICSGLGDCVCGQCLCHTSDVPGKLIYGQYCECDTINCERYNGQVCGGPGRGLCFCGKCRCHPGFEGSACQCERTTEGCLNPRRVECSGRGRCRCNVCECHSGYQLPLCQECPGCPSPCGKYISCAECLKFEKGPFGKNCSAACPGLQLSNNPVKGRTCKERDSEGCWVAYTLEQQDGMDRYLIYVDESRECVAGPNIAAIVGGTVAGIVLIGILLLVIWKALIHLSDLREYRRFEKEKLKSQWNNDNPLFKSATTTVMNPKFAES
substance,measurement,value
anti-CD18 antibody molecule TS 1/18,"3H-thymidine uptake (cpm), PBMC + HUVEC + PSMA×CD3, off target activation (FIG. 3A; control about 30000 cpm)",< 10000 cpm
